Among the data in article doi:10.1101/2024.06.23.600241 (bioRxiv, 2024) are koff and Kd values, retold here.

By koff is commonly meant the first-order rate constant of dissociation. High values mean fast dissociation, low ones slow dissociation. The Kd is the concentration at which binding is half-saturated. Lower therefore signals a tighter complex.

Test [1] addresses T1, PvDBP-RII subdomain 3 (Plasmodium vivax, UniProt P22290 211-508).
T1 chain: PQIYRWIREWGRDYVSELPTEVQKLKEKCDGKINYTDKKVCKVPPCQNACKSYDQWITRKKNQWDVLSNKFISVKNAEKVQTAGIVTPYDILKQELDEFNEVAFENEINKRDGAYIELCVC
Nature of the test: SPR. (In general: Surface plasmon resonance follows binding to a sensor surface in real time, without labels.)

In test [2] the target is T2, Plasmodium vivax Duffy binding protein region II (PvDBP-RII) (Plasmodium vivax, UniProt P22290 211-508).
T2 chain: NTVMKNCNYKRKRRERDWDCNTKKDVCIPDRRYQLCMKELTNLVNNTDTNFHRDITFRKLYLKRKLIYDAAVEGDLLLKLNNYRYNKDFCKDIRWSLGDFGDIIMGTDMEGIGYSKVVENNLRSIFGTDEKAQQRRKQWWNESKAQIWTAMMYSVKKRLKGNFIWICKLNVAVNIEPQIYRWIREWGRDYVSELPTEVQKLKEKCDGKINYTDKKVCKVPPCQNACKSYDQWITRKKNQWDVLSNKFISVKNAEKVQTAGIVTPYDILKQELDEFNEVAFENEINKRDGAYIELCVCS
The test is described as follows: SPR.

The target in test [3] is T3, Plasmodium vivax Duffy binding protein region II (PvDBP-RII) (Plasmodium vivax Salvador I (strain as …, UniProt P22290)).
T3 construct: The tag and its TEV cleavage hold only if the pET15b construct was the one used; SalI is named only for the transgenic parasites; also called RII region of PvDBP; source: the same paragraph also says cloned into modified pET15b, expressed in E. coli BL21-DE3; not shown: His-tag, N-terminal, cleaved
The test is described as follows: SPR; Biacore T200; DB9 captured on a CM5 chip amine-coupled with protein A/G; analytes flowed in a two-fold dilution series from 1 μM; 20mM HEPES pH 7.4, 150mM NaCl, 0.005% Tween-20. The settings on record: both partners purified.

In test [4] the target is T4, PvDBP-RII subdomain 3 (Plasmodium vivax Salvador I, UniProt P22290).
T4 construct: also called SD3; not shown: His-tag, N-terminal, cleaved
The description is as above. The conditions noted are these: both partners purified.

B1: monoclonal antibody DB9 (antibody, V domains shown)
VH: EVQLQESGPGLVKPSETLSLTCTVSGGSVSSSTYYWGWVRQPPGKGLEWIGSIYYSGSTYYNPSLKSRVTISVDTSKNQFSLKLSSVTAADTAVYYCARDGTGALDLWGRGTLVTVSS
VL: DIVMTQSPSTLSASVGDRVTITCRASQSISSWLAWYQQRPGKAPRLLIYKASSLLSGVPSRFGGSGSGTDFTLTISSLQPDDFATYHCQHYNTYPWTFGQGTKVEIK
notes: the Fab part of the heavy chain is in PDB 6R2S and PDB 9EZE; the light chain is in PDB 6R2S and PDB 9EZE
In the case of B1, the koff in test [1] was 0.00172 s⁻¹; in test [2] it was 0.000976 s⁻¹. Moreover, the dissociation constant Kd in test [3] was 2.63 nM; in test [4] it was 1.11 nM.
